Assay results published in paper PMC4105854.

Tested on: DNA gyrase
Test: single-molecule T7 transcription elongation rate titrated with gyrase
Conditions: multiple biotin (topologically constrained); not given in the held text

nuoB-N template with multiple biotins (~12 kb)
Kd: 100 nM
